Results reported in patent US20230416365A1 (Hoffmann-La Roche, published 2023).

What was measured:
[1] = target: T1, human GPRC5D on CHO-hGPRC5D cells (human, UniProt Q9NZD1 1-345); assay: flow cytometry on CHO huGPRC5D cells, PE anti-human IgG Fc secondary
T1 construct: also called CHO huGPRC5D L2

[2] = target: T2, human CD28 on CHO cells (parental cell line CHO-k1 ATCC #CCL-61, modified to stably overexpress human CD28) (human, UniProt P10747 19-220); assay: flow cytometry on CHO-hCD28 cells
T2 construct: also called hu CD28; CHO-hCD28

[3] = target: T3, human FAP on 3T3-huFAP cells (clone 19) (human, UniProt Q12884 1-760); assay: flow cytometry on 3T3-huFAP cells, median fluorescence intensity (axis MFI APC)
[4] = target: T2, human CD28 on CHO cells (parental cell …); assay: flow cytometry on CHO cells stably expressing human CD28, FAP-CD28 1+1 constructs, MFI (PE)
[5] = target: T2, human CD28 on CHO cells (parental cell …); assay: binding to CHO cells expressing human CD28 (by the table's title)
[6] = target: T3, human FAP on 3T3-huFAP cells (clone 19); assay: flow cytometry on 3T3-huFAP cells, FAP-CD28 1+1 constructs, MFI (PE)
[7] = target: T4, biotinylated huCD28-Fc (dimeric CD28-Fc construct with a monovalent biotinylated avi-tag) (human, UniProt P10747 19-152, biotinylated at the C-terminal avi tag); assay: SPR, ProteOn XPR36, huCD28-Fc on NLC chip, bispecific as analyte
T4 construct: not shown: hum IgG1 Fc fragment with hole and PG-LALA mutations; hum IgG1 Fc fragment with knob and PG-LALA mutations

[8] = target: T5, human CEA (CEACAM5) on cells (MKN45 cells; MV3 cells engineered to express human CEACAM5) (human, UniProt P06731 35-685); assay: flow cytometry on MV3 cells modified to express CEA
T5 sequence: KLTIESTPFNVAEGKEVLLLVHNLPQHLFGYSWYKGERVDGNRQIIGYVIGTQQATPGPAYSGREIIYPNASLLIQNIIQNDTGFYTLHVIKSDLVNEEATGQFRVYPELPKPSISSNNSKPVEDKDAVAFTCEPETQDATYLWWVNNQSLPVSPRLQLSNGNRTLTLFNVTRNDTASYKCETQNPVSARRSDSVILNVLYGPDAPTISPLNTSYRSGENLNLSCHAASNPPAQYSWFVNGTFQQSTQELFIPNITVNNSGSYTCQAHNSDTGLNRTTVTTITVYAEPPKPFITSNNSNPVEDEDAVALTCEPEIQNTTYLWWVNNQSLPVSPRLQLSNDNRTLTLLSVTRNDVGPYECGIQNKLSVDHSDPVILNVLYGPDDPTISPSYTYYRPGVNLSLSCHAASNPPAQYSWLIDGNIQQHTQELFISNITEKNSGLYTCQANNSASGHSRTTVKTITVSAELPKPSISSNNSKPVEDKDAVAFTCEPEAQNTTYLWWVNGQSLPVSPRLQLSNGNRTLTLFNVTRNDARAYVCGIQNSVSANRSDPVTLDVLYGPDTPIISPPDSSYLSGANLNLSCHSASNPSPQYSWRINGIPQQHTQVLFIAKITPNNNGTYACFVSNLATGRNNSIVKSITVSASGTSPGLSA

[9] = target: T4, biotinylated huCD28-Fc (dimeric CD28-Fc …); assay: SPR, ProteOn XPR36, huCD28-Fc immobilised, bispecific as analyte
human BCMA on IM-9 cells = target: T6, human BCMA on IM-9 cells (human, UniProt Q02223 1-184); assay: flow cytometry on IM-9 cells
T6 construct: also called B-cell maturation antigen
T6 sequence: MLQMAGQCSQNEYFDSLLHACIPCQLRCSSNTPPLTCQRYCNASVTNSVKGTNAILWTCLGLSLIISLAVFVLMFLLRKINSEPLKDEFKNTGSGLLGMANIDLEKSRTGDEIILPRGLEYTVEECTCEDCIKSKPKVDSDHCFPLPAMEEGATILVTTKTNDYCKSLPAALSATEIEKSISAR

B1: GPRC5D (5E11)-CD28 (SA_Variant 8) 1+1 format (Molecule 16B) (bispecific antibody, human IgG1, kappa, L234A L235A)
heavy 1: not shown
light 1: QVQLVQSGAEVKKPGASVKVSCKASGYTFTSYYIHWVRQAPGQGLEWIGSIYPGNVQTNYNEKFKDRATLTVDTSISTAYMELSRLRSDDTAVYFCTRSHYGLDFNFDVWGQGTTVTVSSASVAAPSVFIFPPSDEQLKSGTASVVCLLNNFYPREAKVQWKVDNALQSGNSQESVTEQDSKDSTYSLSSTLTLSKADYEKHKVYACEVTHQGLSSPVTKSFNRGEC
heavy 2: EVQLLESGGGLVQPGGSLRLSCAASGFTFSKYAMAWVRQAPGKGLEWVASISTGGVNTYYADSVKGRFTISRDNSKNTLYLQMNSLRAEDTAVYYCATHTGDYFDYWGQGTMVTVSSASTKGPSVFPLAPSSKSTSGGTAALGCLVEDYFPEPVTVSWNSGALTSGVHTFPAVLQSSGLYSLSSVVTVPSSSLGTQTYICNVNHKPSNTKVDEKVEPKSCDKTHTCPPCPAPEAAGGPSVFLFPPKPKDTLMISRTPEVTCVVVDVSHEDPEVKFNWYVDGVEVHNAKTKPREEQYNSTYRVVSVLTVLHQDWLNGKEYKCKVSNKALGAPIEKTISKAKGQPREPQVCTLPPSRDELTKNQVSLSCAVKGFYPSDIAVEWESNGQPENNYKTTPPVLDSDGSFFLVSKLTVDKSRWQQGNVFSCSVMHEALHNHYTQKSLSLSP
light 2: EIVLTQSPGTLSLSPGERATLSCRASQSVSISGINLMNWYQQKPGQQPKLLIYHASILASGIPDRFSGSGSGTDFTLTISRLEPEDFAVYYCQQTRESPLTFGQGTRLEIKRTVAAPSVFIFPPSDRKLKSGTASVVCLLNNFYPREAKVQWKVDNALQSGNSQESVTEQDSKDSTYSLSSTLTLSKADYEKHKVYACEVTHQGLSSPVTKSFNRGEC
notes: huIgG1 PG-LALA CrossFab; also called P1AF2954
In the case of B1, the binding result [1] is reported as “binds” and the EC50 [2] is reported as 74.2 nM.

B2: FAP-CD28SA 2+1 (P1AD5231) (bispecific antibody, human IgG1, kappa, L234A L235A)
heavy chain CD28(SA) VLCH1 - FAP(4B9) VHCH1 EE - Fc knob PGLALA: not shown
heavy chain FAP(4B9) VHCH1 EE - Fc hole PGLALA: EVQLLESGGGLVQPGGSLRLSCAASGFTFSSYAMSWVRQAPGKGLEWVSAIIGSGASTYYADSVKGRFTISRDNSKNTLYLQMNSLRAEDTAVYYCAKGWFGGFNYWGQGTLVTVSSASTKGPSVFPLAPSSKSTSGGTAALGCLVEDYFPEPVTVSWNSGALTSGVHTFPAVLQSSGLYSLSSVVTVPSSSLGTQTYICNVNHKPSNTKVDEKVEPKSCDKTHTCPPCPAPEAAGGPSVFLFPPKPKDTLMISRTPEVTCVVVDVSHEDPEVKFNWYVDGVEVHNAKTKPREEQYNSTYRVVSVLTVLHQDWLNGKEYKCKVSNKALGAPIEKTISKAKGQPREPQVCTLPPSRDELTKNQVSLSCAVKGFYPSDIAVEWESNGQPENNYKTTPPVLDSDGSFFLVSKLTVDKSRWQQGNVFSCSVMHEALHNHYTQKSLSLSP
CD28(SA) VHCL: QVQLVQSGAEVKKPGASVKVSCKASGYTFTSYYIHWVRQAPGQGLEWIGCIYPGNVNTNYNEKFKDRATLTVDTSISTAYMELSRLRSDDTAVYFCTRSHYGLDWNFDVWGQGTTVTVSSASVAAPSVFIFPPSDEQLKSGTASVVCLLNNFYPREAKVQWKVDNALQSGNSQESVTEQDSKDSTYSLSSTLTLSKADYEKHKVYACEVTHQGLSSPVTKSFNRGEC
FAP(4B9) VLCL RK: EIVLTQSPGTLSLSPGERATLSCRASQSVTSSYLAWYQQKPGQAPRLLINVGSRRATGIPDRFSGSGSGTDFTLTISRLEPEDFAVYYCQQGIMLPPTFGQGTKVEIKRTVAAPSVFIFPPSDRKLKSGTASVVCLLNNFYPREAKVQWKVDNALQSGNSQESVTEQDSKDSTYSLSSTLTLSKADYEKHKVYACEVTHQGLSSPVTKSFNRGEC
notes: monovalent for CD28, bivalent for FAP; also called Molecule G; FAP (4B9)-CD28 (SA) 2+1
In the case of B2, the “EC50 (read off the curve)” value [3] is reported as roughly 0.3 nM.

B3: FAP (4B9) - CD28 (CD28(SA)_Variant 27) 1+1 (bispecific antibody, human IgG1, kappa, L234A L235A)
heavy 1: EIVLTQSPGTLSLSPGERATLSCRASQSVTSSYLAWYQQKPGQAPRLLINVGSRRATGIPDRFSGSGSGTDFTLTISRLEPEDFAVYYCQQGIMLPPTFGQGTKVEIKSSASTKGPSVFPLAPSSKSTSGGTAALGCLVKDYFPEPVTVSWNSGALTSGVHTFPAVLQSSGLYSLSSVVTVPSSSLGTQTYICNVNHKPSNTKVDKKVEPKSCDKTHTCPPCPAPEAAGGPSVFLFPPKPKDTLMISRTPEVTCVVVDVSHEDPEVKFNWYVDGVEVHNAKTKPREEQYNSTYRVVSVLTVLHQDWLNGKEYKCKVSNKALGAPIEKTISKAKGQPREPQVCTLPPSRDELTKNQVSLSCAVKGFYPSDIAVEWESNGQPENNYKTTPPVLDSDGSFFLVSKLTVDKSRWQQGNVFSCSVMHEALHNHYTQKSLSLSP
light 1: EVQLLESGGGLVQPGGSLRLSCAASGFTFSSYAMSWVRQAPGKGLEWVSAIIGSGASTYYADSVKGRFTISRDNSKNTLYLQMNSLRAEDTAVYYCAKGWFGGFNYWGQGTLVTVSSASVAAPSVFIFPPSDEQLKSGTASVVCLLNNFYPREAKVQWKVDNALQSGNSQESVTEQDSKDSTYSLSSTLTLSKADYEKHKVYACEVTHQGLSSPVTKSFNRGEC
heavy 2: not shown
light 2: not shown
notes: huIgG1 PG-LALA CrossFab 1+1; also called P1AE3140
For B3, the “EC50 (read off the curve)” value [4] was roughly 3 nM, the Kd [5] was 5.4 nM and the binding result [6] was “binds”. It also gave a Kd [7] of 5.4 nM, a koff [7] of 0.00121 s⁻¹ and a kon [7] of 227000 M⁻¹ s⁻¹.

B4: CEA (A5H1EL1D)-CD28 (SA_Variant 15) 1+1 format (Molecule 11C) (bispecific antibody, human IgG1, kappa, L234A L235A)
heavy 1: EIVLTQSPATLSLSPGERATLSCRASSSVTYIHWYQQKPGQAPRSWIYATSNLASGIPARFSGSGSGTDFTLTISSLEPEDFAVYYCQHWSSKPPTFGQGTKLEIKSSASTKGPSVFPLAPSSKSTSGGTAALGCLVKDYFPEPVTVSWNSGALTSGVHTFPAVLQSSGLYSLSSVVTVPSSSLGTQTYICNVNHKPSNTKVDKKVEPKSCDKTHTCPPCPAPEAAGGPSVFLFPPKPKDTLMISRTPEVTCVVVDVSHEDPEVKFNWYVDGVEVHNAKTKPREEQYNSTYRVVSVLTVLHQDWLNGKEYKCKVSNKALGAPIEKTISKAKGQPREPQVCTLPPSRDELTKNQVSLSCAVKGFYPSDIAVEWESNGQPENNYKTTPPVLDSDGSFFLVSKLTVDKSRWQQGNVFSCSVMHEALHNHYTQKSLSLSP
light 1: EVQLLESGGGLVQPGGSLRLSCAASGFTFTDYYMNWVRQAPGKGLEWLGFIGNKANAYTTEYSASVKGRFTISRDKSKNTLYLQMNSLRAEDTATYYCTRDRGLRFYFDYWGQGTTVTVSSASVAAPSVFIFPPSDEQLKSGTASVVCLLNNFYPREAKVQWKVDNALQSGNSQESVTEQDSKDSTYSLSSTLTLSKADYEKHKVYACEVTHQGLSSPVTKSFNRGEC
heavy 2: not shown
light 2: not shown
notes: huIgG1 PG-LALA CrossFab; also called P1AE4775
For B4, the EC50 [8] was 20.4 nM, the Kd [9] was 10 nM and the koff [9] was 0.00264 s⁻¹. For the same binder, the kon [9] was 259000 M⁻¹ s⁻¹.

B5: anti-BCMA-CD28 (SA_Variant 15) 1+1 format (Molecule 16D) (bispecific antibody, human IgG1, kappa, L234A L235A)
heavy 1: not shown
light 1: QVQLVQSGAEVKKPGASVKVSCKASGYTFTSYYIHWVRQAPGQGLEWIGSIYPGNVQTNYNEKFKDRATLTVDTSISTAYMELSRLRSDDTAVYFCTRSHYGLDWNFDVWGQGTTVTVSSASVAAPSVFIFPPSDEQLKSGTASVVCLLNNFYPREAKVQWKVDNALQSGNSQESVTEQDSKDSTYSLSSTLTLSKADYEKHKVYACEVTHQGLSSPVTKSFNRGEC
heavy 2: EVQLLESGGGLVQPGGSLRLSCAASGFTFSSYAMNWVRQAPGKGLEWVSAITASGGSTYYADSVKGRFTISRDNSKNTLYLQMNSLRAEDTAVYYCARYWPMSLWGQGTLVTVSSASTKGPSVFPLAPSSKSTSGGTAALGCLVEDYFPEPVTVSWNSGALTSGVHTFPAVLQSSGLYSLSSVVTVPSSSLGTQTYICNVNHKPSNTKVDEKVEPKSCDKTHTCPPCPAPEAAGGPSVFLFPPKPKDTLMISRTPEVTCVVVDVSHEDPEVKFNWYVDGVEVHNAKTKPREEQYNSTYRVVSVLTVLHQDWLNGKEYKCKVSNKALGAPIEKTISKAKGQPREPQVCTLPPSRDELTKNQVSLSCAVKGFYPSDIAVEWESNGQPENNYKTTPPVLDSDGSFFLVSKLTVDKSRWQQGNVFSCSVMHEALHNHYTQKSLSLSP
light 2: EIVLTQSPGTLSLSPGERATLSCRASQSVSAYYLAWYQQKPGQAPRLLMYDASIRATGIPDRFSGSGSGTDFTLTISRLEPEDFAVYYCQQYERWPLTFGQGTKVEIKRTVAAPSVFIFPPSDRKLKSGTASVVCLLNNFYPREAKVQWKVDNALQSGNSQESVTEQDSKDSTYSLSSTLTLSKADYEKHKVYACEVTHQGLSSPVTKSFNRGEC
notes: huIgG1 PG-LALA CrossFab; also called P1AE9053
For B5, the EC50 [2] was 9.9 nM and the EC50 (human BCMA on IM-9 cells) was 3.96 nM.
